Measurements as given in the Human Domainome abundance scans (Beltran et al. 2025).
± gives the uncertainty stated by the source.

B1: Triacylglycerol hydrolase DDHD2, residues 389 to 447; numbered along this chain, O94830 (parent)
chain: TLEEDLKKLQLSEFFDIFEKEKVDKEALALCTDRDLQEIGIPLGPRKKILNYFSTRKNS

Variants of: B1
Assay: abundance fitness (aPCA) (normalised: wild type 0, dead -1); higher = more abundant; growth selection in yeast, the domain comes from the species named
Conditions: Homo sapiens

Variant | abundance fitness
TLEEKLKKLQLSEFFDIFEKEKVDKEALALCTDRDLQEIGIPLGPRKKILNYFSTRKNS | -0.42 ± 0.085
TLEEMLKKLQLSEFFDIFEKEKVDKEALALCTDRDLQEIGIPLGPRKKILNYFSTRKNS | -0.194 ± 0.076
TLEEDLKKLQLSEFFDIFEKFKVDKEALALCTDRDLQEIGIPLGPRKKILNYFSTRKNS | 0.616 ± 0.11
TLEEDLKKLQLSEFFDIFEKEKVLKEALALCTDRDLQEIGIPLGPRKKILNYFSTRKNS | -0.881 ± 0.13
TLEEDLKKLQLSEFFDIFEKEKVHKEALALCTDRDLQEIGIPLGPRKKILNYFSTRKNS | -0.587 ± 0.26
TLEEDLKKLQLSEFFDIFEKEKVDKEALALCTDRDLQEIGIPLGPRKKIKNYFSTRKNS | -0.218 ± 0.1
TLEEDLKKLQLSEFFDIFEKEKVDKEALALCTDRDLQEIGIPLGPRKKILNYFSKRKNS | 0.178 ± 0.096
TLEEDLKKLQLSEFFDIFEKEKVDNEALALCTDRDLQEIGIPLGPRKKILNYFSTRKNS | -0.494 ± 0.16
TLEEDLKKLQLSEFFDIFEKEKVDQEALALCTDRDLQEIGIPLGPRKKILNYFSTRKNS | -0.285 ± 0.097
TLEEDLKKLQLSEFFDIFEKEKVDKEALALCTDRDVQEIGIPLGPRKKILNYFSTRKNS | -0.567 ± 0.073
TLEEDLKKLQLSEFFDIFEKEKVDKEALALCTDRDLQEIGIPLGPRKIILNYFSTRKNS | 0.104 ± 0.12
TLEEDLKKLQLSEFFDIFEKEKVDKEALALCTDRDLQEIGIPLGPRKVILNYFSTRKNS | 0.244 ± 0.061
TLEEDLKKLQLSEFFDIFEKEKVDKEALALCTDRDLQEIGIPLGPRKPILNYFSTRKNS | -0.494 ± 0.12
TLEEDLKKLQLSEFFDIFEKEKVDKEALALCTDRDLQEIGIPLGPRKYILNYFSTRKNS | -0.566 ± 0.16
TLEEDLKKLQLSEFFDIFEKEKVDKEALALCTDRDLQEIAIPLGPRKKILNYFSTRKNS | -0.65 ± 0.085
TLEEDLKKLQLSEFFDIFEKEKVDKEALALCTDRDLQEIDIPLGPRKKILNYFSTRKNS | -0.572 ± 0.11
TLEEDLKKLQLSEFFDIFEKEKVDKEALALCTDRDLQEIGIPLGPRAKILNYFSTRKNS | 0.296 ± 0.067
TLEEDLKKLQLSEFFDIFEKEKVDKEALALCTDRDLQEIGIPLGPRLKILNYFSTRKNS | -0.087 ± 0.071
TLEEDLKKLQLSEFFDIFEKEKVDKEALALCTDRDLQEIGIPLGPRMKILNYFSTRKNS | 0.58 ± 0.11
TLEEDLKKLQLSEFFDIFEKEKVDKEALALCTDRDLQEIGIPLGWRKKILNYFSTRKNS | -1.26 ± 0.23
TLEEDLKKLQLSEFFDIFEKEKVDKEAAALCTDRDLQEIGIPLGPRKKILNYFSTRKNS | -0.352 ± 0.083
TLEEDLKKLQLSEFFDIFEKEKVDKEALALCTDRDLQEIGIPLGPRKKVLNYFSTRKNS | -0.215 ± 0.072
TLEEDLKKLQLSEFFDIFEKEKVDKEALALCTDRDLQEIGIPLGPRKKPLNYFSTRKNS | -0.34 ± 0.11

Variant | abundance fitness
TLEEDLKKLQLSEFFDIFEKEKVDKEALALCTDRDLQEIGIPLGPRKKLLNYFSTRKNS | -0.077 ± 0.069
TLEEDLKKLQFSEFFDIFEKEKVDKEALALCTDRDLQEIGIPLGPRKKILNYFSTRKNS | -1.05 ± 0.17
TLEEDLKKLQCSEFFDIFEKEKVDKEALALCTDRDLQEIGIPLGPRKKILNYFSTRKNS | -0.462 ± 0.088
TLEEDLKKLQLSEFFDIFEKEKVDKEALALITDRDLQEIGIPLGPRKKILNYFSTRKNS | 0.035 ± 0.1
TLEEDLKKLQLSEFFDIFEKEKVDKEALALQTDRDLQEIGIPLGPRKKILNYFSTRKNS | -0.145 ± 0.13
TLEEDLKKLQLSEFFDIFEKEKVDKEALAACTDRDLQEIGIPLGPRKKILNYFSTRKNS | 0.477 ± 0.078
TLEEDLKKLQLSEFFDIFEKEKVDKEALALCTDRDLQEIGIPIGPRKKILNYFSTRKNS | 0.496 ± 0.057
TLEEDLKKLQLSEFFDIFEKEKVDKEALALCTDRDLQEIGIPQGPRKKILNYFSTRKNS | 0.621 ± 0.081
TLEEDLKKLQLSEFFDIFEKEKVDKEALALCTDRDLQEIGIPSGPRKKILNYFSTRKNS | 0.617 ± 0.048
TLEEDLKKLQLSEFFDIFEKEKVDKEQLALCTDRDLQEIGIPLGPRKKILNYFSTRKNS | 0.475 ± 0.09
TLEEDLKKLQLSEFFDIFEKEKVDKEILALCTDRDLQEIGIPLGPRKKILNYFSTRKNS | -0.045 ± 0.18
TLEEDLKKLQLSEFFDIFEKEKVDKEHLALCTDRDLQEIGIPLGPRKKILNYFSTRKNS | 0.357 ± 0.14
TLEEDLKKLQLSEFFDIFEKEKVDKEALALCTDRDLQEIGIPLGPRKKILNYFSTRKNF | 0.03 ± 0.12
TLEEDLKKLGLSEFFDIFEKEKVDKEALALCTDRDLQEIGIPLGPRKKILNYFSTRKNS | -0.131 ± 0.046
TLEEDLKKLNLSEFFDIFEKEKVDKEALALCTDRDLQEIGIPLGPRKKILNYFSTRKNS | 0.011 ± 0.2
TLEEDLKKLQLSEFFDIFEKEKVDKEALALCTDRDLQEIGIPLGPRKKILNYFSTWKNS | -0.1 ± 0.098
TLEEDLKKLQLSEFFDIFEKEKVDKEALALCTDRDLQEIGIPLGPRKKILNYFSTCKNS | -0.065 ± 0.1
TLEEDLKKLQLSEFFDIFPKEKVDKEALALCTDRDLQEIGIPLGPRKKILNYFSTRKNS | -0.857 ± 0.12
TLEEDLKKLQLSEFFDIFEKEKIDKEALALCTDRDLQEIGIPLGPRKKILNYFSTRKNS | 0.417 ± 0.097
TLEEDLKKLQLSEFFDIFEKEKADKEALALCTDRDLQEIGIPLGPRKKILNYFSTRKNS | -0.339 ± 0.083
TLEEDLKKLQLSEFFDIFEKEKRDKEALALCTDRDLQEIGIPLGPRKKILNYFSTRKNS | -0.311 ± 0.072
TLEEDLKKLQLSEFFDIFEKEKSDKEALALCTDRDLQEIGIPLGPRKKILNYFSTRKNS | -0.391 ± 0.083
TLEEDLKKLQLSEFFDIFEKEKNDKEALALCTDRDLQEIGIPLGPRKKILNYFSTRKNS | -0.414 ± 0.19

Variant | abundance fitness
TLEEDLKKLQLSESFDIFEKEKVDKEALALCTDRDLQEIGIPLGPRKKILNYFSTRKNS | -0.511 ± 0.082
TLEEDLKKLQLSEPFDIFEKEKVDKEALALCTDRDLQEIGIPLGPRKKILNYFSTRKNS | -0.581 ± 0.097
TLEEDLKKLQLSVFFDIFEKEKVDKEALALCTDRDLQEIGIPLGPRKKILNYFSTRKNS | -0.109 ± 0.088
TLEEDLKKLQLSSFFDIFEKEKVDKEALALCTDRDLQEIGIPLGPRKKILNYFSTRKNS | -0.252 ± 0.1
TLEEDLKKLQLSMFFDIFEKEKVDKEALALCTDRDLQEIGIPLGPRKKILNYFSTRKNS | -0.135 ± 0.17
TLEEDLTKLQLSEFFDIFEKEKVDKEALALCTDRDLQEIGIPLGPRKKILNYFSTRKNS | -0.196 ± 0.099
TLEEDLKKLQLSEFFDIFEKEKVDKEALALCTVRDLQEIGIPLGPRKKILNYFSTRKNS | -0.693 ± 0.083
TLEEDLKKLQLSEFFDIFEKEKVDKEALALCTDRDLQEIGIPLGPVKKILNYFSTRKNS | -0.52 ± 0.068
TLEEDLKKLQLSEFFDIFEKEKVDKEALALCTDRDLQEIGIPLGPDKKILNYFSTRKNS | -0.242 ± 0.098
TLEEDLKKLQLSEFFDIFEKEKVDKEALALCTDRDLQEIGIPLGPCKKILNYFSTRKNS | -0.172 ± 0.08
TLEEDLKKLQLSEFFDIFEKEKVDKEALSLCTDRDLQEIGIPLGPRKKILNYFSTRKNS | 0.106 ± 0.063
TLEEDLKKLQLSEFFDIFEIEKVDKEALALCTDRDLQEIGIPLGPRKKILNYFSTRKNS | -0.321 ± 0.14
TLEEDLKKLQLSEFFDIFEHEKVDKEALALCTDRDLQEIGIPLGPRKKILNYFSTRKNS | -0.212 ± 0.14
TLEEDLKKLQLSEFFDIFEDEKVDKEALALCTDRDLQEIGIPLGPRKKILNYFSTRKNS | -0.126 ± 0.14
TLEEDLKKLQLSEFFDIFEQEKVDKEALALCTDRDLQEIGIPLGPRKKILNYFSTRKNS | -0.317 ± 0.11
TLEEDLKKLQLSEFFDIFELEKVDKEALALCTDRDLQEIGIPLGPRKKILNYFSTRKNS | -0.386 ± 0.069
TLEEDLKKLQLSEFFDIFEKEKVDKEALALCTDRDLQEIGIPLGPRKKILNYFSTRKLS | -0.116 ± 0.088
TLEEDLKKLQLSEFFDIFEKEKVDKEALALCTDRDLQEIGIPLGPRKKILNYFSTRKRS | -0.332 ± 0.074
TLEEDLKKLQLSEFFDIFEKEKVDKEALALCTDRDLQEIGIPLGPRKKILNYFSTRKWS | -0.373 ± 0.14
TLEEDLKKLQLSEFFDIFEKEKVDKEALALCTDRDLQEIGILLGPRKKILNYFSTRKNS | -0.958 ± 0.084
TLEEDHKKLQLSEFFDIFEKEKVDKEALALCTDRDLQEIGIPLGPRKKILNYFSTRKNS | -0.754 ± 0.46
TLEEDLKKLQLSEFFDIFEKEKVDKEALALCTDRDLQEIGIPLSPRKKILNYFSTRKNS | 0.167 ± 0.048
TLEEDLKKLQLSEFFDIFEKEKVDKEALALCTDHDLQEIGIPLGPRKKILNYFSTRKNS | 0.085 ± 0.13

Variant | abundance fitness
TLEEDLKKLQLSEFFDIFEKEKVDKEALALCTDIDLQEIGIPLGPRKKILNYFSTRKNS | -0.135 ± 0.13
TLEEDLKKLQLSEFFDIFEKEKVDKEALALCTDVDLQEIGIPLGPRKKILNYFSTRKNS | 0.072 ± 0.07
TLEEDLKKLQLSEFFDIFEKEKVDKEALALCTDMDLQEIGIPLGPRKKILNYFSTRKNS | 0.32 ± 0.092
TLEEDLKKLQLSEFFDIFEKEKVDKEALALCTDRDLYEIGIPLGPRKKILNYFSTRKNS | -0.232 ± 0.13
TLEEDLKKLQLSEFFDIFEKEKVDKEALALCTDRDLPEIGIPLGPRKKILNYFSTRKNS | -0.996 ± 0.16
TLEEDLKKLQLSEFFDIFEKEKVDKEALALCTDRDLWEIGIPLGPRKKILNYFSTRKNS | -0.37 ± 0.098
TLEEDLKKLQLSEFFDVFEKEKVDKEALALCTDRDLQEIGIPLGPRKKILNYFSTRKNS | 0.128 ± 0.34
TLEHDLKKLQLSEFFDIFEKEKVDKEALALCTDRDLQEIGIPLGPRKKILNYFSTRKNS | -0.33 ± 0.098
TLEEDLKKLQLSEFYDIFEKEKVDKEALALCTDRDLQEIGIPLGPRKKILNYFSTRKNS | -0.114 ± 0.2
TLEEDLKKLQLSEFFDIFEKEKVDKEALALCTDRDLQEIGIPLGPRKKILMYFSTRKNS | 0.084 ± 0.088
TLEEDLKKLQLSEFFDIFEKEKVDKEALALCTDRDLQGIGIPLGPRKKILNYFSTRKNS | -0.319 ± 0.074
TLEEDLKKLQLSEFFDIFEKEKVDKEALALCTDRDLQEIGIPLGPRKKILNYFVTRKNS | -0.409 ± 0.068
TLEEDLKKLQLSEFFDIFEKEKVDKEALALCTDRDLQEIGIPLGPRKKILNYFPTRKNS | -0.309 ± 0.1
TLEEDLKKLQLSEFFDIFEKEKVDKEALALCTDRCLQEIGIPLGPRKKILNYFSTRKNS | -0.278 ± 0.12
TLEEDLKKLQLSEFFDIFEKEKVDKEALALCTDRKLQEIGIPLGPRKKILNYFSTRKNS | 0.313 ± 0.081
PLEEDLKKLQLSEFFDIFEKEKVDKEALALCTDRDLQEIGIPLGPRKKILNYFSTRKNS | -0.999 ± 0.42
MLEEDLKKLQLSEFFDIFEKEKVDKEALALCTDRDLQEIGIPLGPRKKILNYFSTRKNS | -0.475 ± 0.21
TLEEDLKKLQLSEFFDIFEKEKVDKEALALCTDRDLQEIGYPLGPRKKILNYFSTRKNS | -0.689 ± 0.2
TLEEDLKKLQLSEFFDIFEKEKVDKEALALCTDRDLQEIGDPLGPRKKILNYFSTRKNS | -0.384 ± 0.15
TLEEDLKKLQLAEFFDIFEKEKVDKEALALCTDRDLQEIGIPLGPRKKILNYFSTRKNS | -0.023 ± 0.052
TLEEDLKKLQLIEFFDIFEKEKVDKEALALCTDRDLQEIGIPLGPRKKILNYFSTRKNS | -0.012 ± 0.083
